Laboratory results reported in US20140234211A1 (INVECTORS S R L, published 2014).
Y(DOTA) = not defined here; Y(DTPA) = not defined here; AhOh = not defined here; Peg27 = L1, H-Peg27-OH

B1: monomer of formula (I) of example 1.g, H-L1-Y(C)-L2-P: P = Gln-Trp-Ala-Val-Gly-His-Leu-Nle-NH2, C = DOTA, L1 = H-Peg27-OH, L2 = H-AhOh-OH, in liposomes (peptide)
peptide: QWAVGHLX
modifications: not fully specified; Nle at position 8; C-terminal amide (NH2); N-terminal amino group amide-linked to spacer L2 (H-AhOh-OH)
notes: Chelating agent DOTA; Tested in 111In-labelled liposomes
B2: monomer of formula (I) of example 1.k, H-L1-Y(C)-L2-P: P = Gln-Trp-Ala-Val-Gly-His-Leu-Met-NH2, C = DOTA, L1 = H-Peg27-OH, L2 = H-AhOh-OH, in liposomes (peptide)
peptide: {Peg27-Y(DOTA)-AhOh}-QWAVGHLM-NH2
modifications: reading uncertain; also: in liposomes
notes: as for B1
B3: monomer of formula (I) of example 1.e, H-L1-Y(C)-L2-P: P = Gln-Trp-Ala-Val-Gly-His-Leu-Met-NH2, C = DTPA, L1 = H-Peg27-OH, L2 = H-AhOh-OH, in liposomes (peptide)
peptide: {Peg27-Y(DTPA)-AhOh}-QWAVGHLM-NH2
modifications: reading uncertain; also: in liposomes
notes: Tested in 111In-labelled liposomes
B4: monomer of formula (I) of example 1.a, H-L1-Y(C)-L2-P: P = Gln-Trp-Ala-Val-Gly-His-Leu-Nle-NH2, C = DTPA, L1 = H-Peg27-OH, L2 = H-AhOh-OH, in liposomes (peptide)
peptide: QWAVGHLX
modifications: not fully specified; Nle at position 8; C-terminal amide (NH2); N-terminal amino group amide-linked to spacer L2 (H-AhOh-OH) of the lipid/DTPA monomer
notes: also called monomer 1a

target: T1, GRP receptor overexpressed on PC-3 cells (UniProt P30550 1-384); assay: 111In-labelled liposomes on PC-3 cells overexpressing the GRP receptor; cell-bound radioactivity by gamma counting
T1 construct: whole, on cells; also called GRP receptors
Protocol: On the day of the experiment, the cell medium is removed, the cells are washed two times with fresh medium (DMEM with 1% of foetal bovine serum, pH 7.4) and incubated for at least one hour at 37° C. The cells were incubated (in triplicate) with 100 μL of liposomes labelled with indium 111/natural indium at various times (30 mins, 1 hour, 2 hours, 4 hours). The final volume is 1 mL and the final liposomal concentration is 2*10⁻⁴M. At the end of the incubation, the cell medium, containing the unbound radioactivity, is separated from the cells.
The radioactivity bound to the cells was recovered by tryptic digestion after two rapid washes with […] PBS followed by 1 hour of incubation and measured by gamma counting. The difference in binding of the liposomes containing H-L₁-Y(C)-L₂-P with the bombesin peptide, compared to when the peptide is absent, is clearly visible in FIG. 2. Experiments were conducted with various type (1) monomers in the liposomal formulation, varying the peptide sequences and the chelating agent, such as those described in examples 1a-1o. No substantial differences are found in the target selective binding properties. For example, in FIG. 2 the result for the liposomes containing monomer 1a is reported.

T1 sequence (P30550 whole entry): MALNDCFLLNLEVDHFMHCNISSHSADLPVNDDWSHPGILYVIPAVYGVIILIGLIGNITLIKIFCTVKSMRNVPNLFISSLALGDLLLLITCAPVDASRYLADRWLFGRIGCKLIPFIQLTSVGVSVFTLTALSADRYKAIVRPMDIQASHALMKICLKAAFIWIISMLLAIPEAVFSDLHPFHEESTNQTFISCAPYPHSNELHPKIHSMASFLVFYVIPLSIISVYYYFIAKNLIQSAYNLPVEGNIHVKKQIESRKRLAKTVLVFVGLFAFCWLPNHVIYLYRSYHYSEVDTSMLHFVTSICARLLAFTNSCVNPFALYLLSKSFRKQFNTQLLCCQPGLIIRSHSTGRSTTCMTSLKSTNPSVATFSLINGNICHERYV

Binding result, binds:
B1
B2
B3
B4
